From patent publication US20260022151A1 (TSINGHUA UNIVERSITY, published 2026) come the findings set out here.

Where only a bound is given, the exact number is not on record here.

The target of assay [1] is T1, CXCR4-mCherry.
T1 construct: Co-expressed with DR5-GFP on transfected HEK293T cells; also called exogenous CXCR4; CXCR4 fused with an mCherry tag at the C-terminal
In words: live-cell confocal colocalisation, HEK293T cells co-expressing CXCR4-mCherry and DR5-GFP. Here is the method:
(§1) HEK293T cells were seeded at a density of 5×10⁵ cells/well into a 4-well chamber 35 mm culture dish (purchased from In Vitro Scientific) and cultured at 37° C., 5% CO₂ until the cell density reached approximately 60-70% confluence. Then, plasmids pCDNA3.1-CXCR4-mCherry and pCDNA3.1-DR5-GFP were gently pipetted and mixed with Opti-MEM Medium (purchased from Invitrogen. Inc.) without antibiotics and serum in a sterile centrifuge tube, in an amount of 0.5 μg pCDNA3.1-CXCR4-mCherry and 0.5 μg pCDNA3.1-DR5-GFP per well. Lipo8000™ transfection reagent (purchased from Shanghai Bio-Tech Biotechnology Co., Ltd.) was added and gently pipetted and mixed again to obtain a plasmid solution for transfection (i.e., each 100 μl Opti-MEM Medium contained 0.5 μg of plasmids pCDNA3.1-CXCR4-mCherry and pCDNA3.1-DR5-GFP, and 1.6 μl Lipo8000). The evenly mixed plasmid solution was added dropwise to each well, gently mixed, and then cultured for 24-36 hours at 37° C., and 5% CO₂ to obtain HEK293T cells co-expressing CXCR4-mCherry and DR5-GFP.
(§2) 200 nM CN-P2S2-DN protein or its different truncated variants P2S2-CN, P2S2. P2S2-DN (all labeled with fluorescent dye Alexa 647) were added to the above cell culture medium. HEK293T cells treated in the same manner with blank solution under the same conditions were used as negative controls. […]

Assay [2] deals with T2, DR5-GFP.
T2 construct: Co-expressed with CXCR4-mCherry on transfected HEK293T cells; also called exogenous DR5; DR5 fused with a GFP tag at the C-terminal
The description is as above. Here is the method:
as §1, §2

The target of assay [3] is T3, endogenous CXCR4 receptor on human tumor cells (human, UniProt P61073 1-352).
T3 construct: whole, on cells; also called CXC motif chemokine receptor 4
T3 sequence (P61073 whole entry): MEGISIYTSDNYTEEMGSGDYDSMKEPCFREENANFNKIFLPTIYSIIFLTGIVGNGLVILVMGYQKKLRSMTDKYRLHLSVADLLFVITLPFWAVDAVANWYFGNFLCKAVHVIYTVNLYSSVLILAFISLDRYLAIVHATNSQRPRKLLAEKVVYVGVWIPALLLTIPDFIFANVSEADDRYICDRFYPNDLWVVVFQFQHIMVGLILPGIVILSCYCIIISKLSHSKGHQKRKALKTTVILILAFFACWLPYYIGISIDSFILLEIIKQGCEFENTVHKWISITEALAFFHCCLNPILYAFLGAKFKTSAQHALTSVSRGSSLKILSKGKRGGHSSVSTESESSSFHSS
Description: FRAP and confocal imaging on SJSA-1 cells, 200 nM. Here is the method: Fluorescence recovery after photobleaching (FRAP) is an experiment commonly used to verify liquid-liquid phase separation, see, for example, Alberti, Simon et al., Journal of Molecular Biology 430(23): 4806-4820, 2018: McSwiggen, David T et al., Genes & Development 33(23-24): 1619-1634, 2019. Therefore, FRAP was performed on the same droplets as in Example 4 that contain 12.5 μM CN-P2S2-DN protein. After bleaching with 488 nm laser light at a laser intensity of 50% for 1 second, fluorescence images were taken under a NIKON A1R HD25 laser confocal microscope (purchased from Nikon, Inc.) with a 100× oil immersion objective lens. The images were analyzed and exported using NIS-Elements AR Analysis (Nikon, Inc.) and Image J (National Institutes of Health) software.
SJSA-1 cells were treated with 200 nM CN-P2S2-DN (labeled with Alexa 561) for 4 hrs in the same manner as in Example 5, and photobleaching analysis was performed.

Assay [4] concerns the target endogenous DR5 receptor on human tumor cells (human, UniProt O14763 56-440). Description: cell-based or functional assay.
Assay [5] deals with T1, CXCR4-mCherry. Description: time-lapse confocal imaging, HEK293T cells co-expressing CXCR4-mCherry and DR5-GFP, 200 nM.
Assay [6] concerns the target T2, DR5-GFP. Described as above.

T1 sequence (chain, as listed by the source limits assumed): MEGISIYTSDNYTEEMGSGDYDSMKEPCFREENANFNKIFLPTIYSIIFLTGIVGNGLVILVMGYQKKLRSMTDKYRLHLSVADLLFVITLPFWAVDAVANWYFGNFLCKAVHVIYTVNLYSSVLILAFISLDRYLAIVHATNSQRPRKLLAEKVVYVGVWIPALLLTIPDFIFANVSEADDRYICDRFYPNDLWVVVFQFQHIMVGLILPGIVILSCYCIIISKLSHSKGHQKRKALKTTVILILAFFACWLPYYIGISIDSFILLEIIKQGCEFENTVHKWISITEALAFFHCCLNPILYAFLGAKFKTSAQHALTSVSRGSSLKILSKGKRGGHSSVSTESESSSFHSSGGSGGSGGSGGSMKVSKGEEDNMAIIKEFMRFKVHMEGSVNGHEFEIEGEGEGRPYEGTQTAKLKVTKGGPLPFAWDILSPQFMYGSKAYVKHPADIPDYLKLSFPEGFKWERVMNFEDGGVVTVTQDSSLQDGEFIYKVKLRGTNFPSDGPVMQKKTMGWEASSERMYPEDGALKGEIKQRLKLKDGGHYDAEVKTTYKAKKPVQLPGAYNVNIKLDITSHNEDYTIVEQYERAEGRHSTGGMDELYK

B1: truncated variant P2S2 (other)
chain: MKGGSWGGSKKTPPPVPPRTTSKGGSGGSGGSGGSKKTPPPVPPRTTSKGGSGGSGGSGGSDLNMPAYVKFNYMAEREDELSLIKGTKVIVMEKSSDGWWRGSYNGQVGWFPSNYVTEEGDSPLASGAGGSEGGGSEGGTSGATDLNMPAYVKFNYMAEREDELSLIKGTKVIVMEKSSDGWWRGSYNGQVGWFPSNYVTEEGDSPLG
modifications: fluorescent dye label by Alexa Fluor C5 maleimide; labelled residue not stated
With B1, the binding result with CXCR4-mCherry [1] and with DR5-GFP [2] was “no binding (tested: 200 nM)” throughout.

B2: recombinant protein CN-P2S2-DN (designed binder)
chain: EVQLMESGGGLVQAGGSLRLSCAASGRTFNNYAMGWFRRAPKGEREFVAAITRSGVRSGVSAIYGDSVKDRFTISRDNAKNTLYLQMNSLKPEDTAVYTCAASAIGSGALRRFEYDYSGQGTQVTVSSGGSGGSGGSGGSASMKGGSWGGSKKTPPPVPPRTTSKGGSGGSGGSGGSKKTPPPVPPRTTSKGGSGGSGGSGGSDLNMPAYVKFNYMAEREDELSLIKGTKVIVMEKSSDGWWRGSYNGQVGWFPSNYVTEEGDSPLASGAGGSEGGGSEGGTSGATDLNMPAYVKFNYMAEREDELSLIKGTKVIVMEKSSDGWWRGSYNGQVGWFPSNYVTEEGDSPLGSMGMGEVQLLESGGGLVQPGGSLRLSCAASGTFDKINNMGWYRQAPGKQRDLVAQITPGGITDYADSVKGRFTISRDNSKNTLYLQMNSLRPEDTAVYYCNAEILKRAYIDVYVNYWGQGTLVTVSS
modifications: fluorescent dye label by Alexa Fluor C5 maleimide (Alexa 647, Alexa 561 or Alexa 546 in the imaging experiments); labelled residue not stated
notes: MBP removed by TEV protease; Unlabelled, endotoxin-free protein was used in the apoptosis assays; also called synthetic ligand CN-P2S2-DN; recombinant ligand CN-P2S2-DN
As for B2, in assay [3], the binding result is “binds”. Moreover, in assay [4], the “IC50 of apoptosis induction in CXCR4/DR5 COLO-205 cells (Annexin V-FITC/PI flow cytometry)” value stood at 28.9 nM; the “IC50 of apoptosis induction in CXCR4/DR5 SJSA-1 cells (Annexin V-FITC/PI flow cytometry)” value amounted to 10.1 nM; the “apoptosis ratio in other CXCR4+/DR5+ double-positive tumor cell lines, 200 nM, 5 hr” value is > 40%; the “apoptosis ratio, COLO-205 cells, 100 nM, 3 hr” value was 74%. Besides, the “apoptosis ratio, SJSA-1 tumor cells, 100 nM, 3 hr” value in assay [4] was 82.5%. The binding result with CXCR4-mCherry [5] was “binds”. The binding result with DR5-GFP [6] is “binds”.
